Experimental data published in patent publication US20030131383A1 (INTERLINK BIOTECHNOLOGIES, published 2003).
No end group written: not given here.

Experiments:
Experiment in all cases: cell-based or functional assay
Carboxypeptidase = molecular target: Carboxypeptidase
Papain = molecular target: T1, Papain (UniProt P00784 134-345)
T1 sequence (looked up): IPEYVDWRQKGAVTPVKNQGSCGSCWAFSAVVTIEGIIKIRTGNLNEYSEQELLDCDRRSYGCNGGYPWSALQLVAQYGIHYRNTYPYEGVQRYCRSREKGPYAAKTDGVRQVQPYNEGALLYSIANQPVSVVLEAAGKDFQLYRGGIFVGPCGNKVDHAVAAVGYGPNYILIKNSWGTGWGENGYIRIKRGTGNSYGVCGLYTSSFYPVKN

Chymotrypsin = molecular target: Chymotrypsin

Binder: RRWPWWPWKWPLI-NH2 [Rev4 (reverse indolicidin), C-terminal amide form]
- % Inhibition of Proteolysis by Rev4 at 2.5 µg/ml (Carboxypeptidase): 58%
- % Inhibition of Proteolysis by Rev4 at 5 µg/ml (Carboxypeptidase): 92%
- % Inhibition of Proteolysis by Rev4 at 10 µg/ml (Carboxypeptidase): 100%
- % Inhibition of Proteolysis by Rev4 at 20 µg/ml (Carboxypeptidase): 100%
- % Inhibition of Proteolysis by Rev4 at 2.5 µg/ml (Papain): 29%
- % Inhibition of Proteolysis by Rev4 at 5 µg/ml (Papain): 72%
- % Inhibition of Proteolysis by Rev4 at 10 µg/ml (Papain): 93%
- % Inhibition of Proteolysis by Rev4 at 20 µg/ml (Papain): 99%
- % Inhibition of Proteolysis by Rev4 at 2.5 µg/ml (Chymotrypsin): 16%
- % Inhibition of Proteolysis by Rev4 at 5 µg/ml (Chymotrypsin): 42%
- % Inhibition of Proteolysis by Rev4 at 10 µg/ml (Chymotrypsin): 75%
- % Inhibition of Proteolysis by Rev4 at 20 µg/ml (Chymotrypsin): 97%
